From US20260193376A1 (Novo Nordisk, published 2026)

Molecular target: human plasma-derived Factor IXa (human, UniProt P00740 47-191; P00740 227-461)
Assay: cell-based or functional assay

Sequence of human plasma-derived Factor IXa (P00740 47-191, chain 1 of 2): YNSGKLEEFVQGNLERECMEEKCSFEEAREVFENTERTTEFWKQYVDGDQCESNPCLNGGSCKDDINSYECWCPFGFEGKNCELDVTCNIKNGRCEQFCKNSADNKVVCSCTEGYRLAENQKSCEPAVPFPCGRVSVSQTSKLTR
Sequence of human plasma-derived Factor IXa (P00740 227-461, chain 2 of 2): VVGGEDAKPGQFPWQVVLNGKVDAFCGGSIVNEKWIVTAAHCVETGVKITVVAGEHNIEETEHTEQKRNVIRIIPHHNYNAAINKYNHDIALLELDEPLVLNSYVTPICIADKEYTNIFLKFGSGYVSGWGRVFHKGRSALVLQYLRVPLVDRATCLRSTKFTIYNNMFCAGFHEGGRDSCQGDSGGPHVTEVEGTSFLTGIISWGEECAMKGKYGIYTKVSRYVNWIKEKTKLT

B1: one-armed (OA) mAb01-9986 (antibody, V domains shown)
VH: EVQLVESGGGLVQPGRSLRLSCAASGFTFHDYAMHWVRQVPGKGLEWVSGISWRGDIGGYVKSVKGRFTISRDNAKNSLYLQMNSLRAEDTALYYCVKSYGSGSFYNAFDSWGQGTLVTVSS
VL: DIQMTQSPSTLSASVGDRVTITCRASQSISSWLAWYQQKPGKAPKFLIYKASRLERGTPSRFSGSGSGTEFSLTISSLQPDDFATYYCLEYSSYIRTFGQGTKVEIK
- Stimulation Index, FXa generation assay, 800 nM OA antibody: 5820 fold

B2: one-armed (OA) mAb11-0929 (antibody, V domains shown)
VH: EVQLVESGGGLVQPGRSLRLSCAASGFTFHDYAMHWVRQVPGKGLEWVSGISWKGDIGGYVDSVKGRFTISRDNEKNSLYLQMNSLRAEDTALYYCVKSYGSGSFYNAFDSWGQGTLVTVSS
VL: DIQMTQSPSTLSASVGDRVTITCRASQSISSWLAWYQQKPGKAPKFLIYKASRLDRGIPSRFSGSGSGTEFSLTISSLQPDDFATYYCLEYSSYIRTFGQGTKVEIK
- Stimulation Index, FXa generation assay, 800 nM OA antibody: 1560 fold

B3: one-armed (OA) mAb11-0938 (antibody, V domains shown)
VH: EVQLVESGGGLVQPGRSLRLSCAASGFTFHDYAMHWVRQVPGKGLEWVSGISWKGDIGGYVDSVKGRFTISRDNEKNSLYLQMNSLRAEDTALYYCVKSYGSGSFYNAFDSWGQGTLVTVSS
VL: DIQMTQSPSTLSASVGDRVTITCRASQSISSWLAWYQQKPGKAPKFLIYKASRLDRGVPSRFSGSGSGTEFSLTISSLQPDDFATYYCLEYSSYIRTFGQGTKVEIK
- Stimulation Index, FXa generation assay, 800 nM OA antibody: 1820 fold

B4: one-armed (OA) mAb11-0931 (antibody, V domains shown)
VH: EVQLVESGGGLVQPGRSLRLSCAASGFTFHDYAMHWVRQVPGKGLEWVSGISWKGDIGGYVDSVKGRFTISRDNEKNSLYLQMNSLRAEDTALYYCVKSYGSGSFYNAFDSWGQGTLVTVSS
VL: DIQMTQSPSTLSASVGDRVTITCRASQSISSWLAWYQQKPGKAPKFLIYKASRLDRGLPSRFSGSGSGTEFSLTISSLQPDDFATYYCLEYSSYIRTFGQGTKVEIK
- Stimulation Index, FXa generation assay, 800 nM OA antibody: 1880 fold

B5: one-armed (OA) mAb11-0047 (antibody, V domains shown)
VH: EVQLVESGGGLVQPGRSLRLSCAASGFTFHDYAMHWVRQAPGKGLEWVSGISWRGDIKGYVDSVKGRFTISRDNAKNSLYLQLNSLRAEDTALYYCAKSYGSGSFYNAFDSWGQGTLVTVSS
VL: DIQMTQSPSTLSASAGDRVTITCRASKSISSWLAWYQQKPGKAPKFLIYKASRLDRGTPQRFSGSGSGTEFSLTISSLQPDDFATYYCLEYSSYIRTFGQGTKVEIK
- Stimulation Index, FXa generation assay, 800 nM OA antibody: 2860 fold

B6: one-armed (OA) mAb11-0174 (antibody, V domains shown)
VH: EVQLVESGGGLVQPGRSLKLSCAASGFTFHDYAMHWVRQAPGKGLEWVSGISWKGDIGGYVDSVKGRFTISRDNAKNSLYLQMNSLRAEDTALYYCAKSYGSGSFYNAFDSWGQGTLVTVSS
VL: DIQMTQSPSTLSASVGDRVTITCRASQSISSWLAWYQQKPGKAPKFLIYKASKLDRGTPSRFSGSGSGTEFTLTISSLQPDDFATYYCLEYSSYIRTFGQGTKVEIK
- Stimulation Index, FXa generation assay, 800 nM OA antibody: 3690 fold

B7: one-armed (OA) mAb11-0164 (antibody, V domains shown)
VH: EVQLVESGGGLVQPGRSLKLSCAASGFRFDDYAMHWVRQVPGKGLEWVSGISWKGDIGGYADSVKGRFTISRDNAKNSLYLQLNSLRAEDTALYYCVKSYGSGSFYNAFDSWGQGTLVTVSS
VL: DIQMTQSPSTLSASVGDRVTITCRASQSISSWLAWYQQKPGKAPKFLIYKASRLERGTPSRFSGSGSGTEFSLTISSLQPDDFATYYCLEYSSYIRTFGQGTKVEIK
- Stimulation Index, FXa generation assay, 800 nM OA antibody: 3270 fold

B8: one-armed (OA) mAb11-0932 (antibody, V domains shown)
VH: EVQLVESGGGLVQPGRSLRLSCAASGFTFHDYAMHWVRQVPGKGLEWVSGISWKGDIGGYVDSVKGRFTISRDNEKNSLYLQMNSLRAEDTALYYCVKSYGSGSFYNAFDSWGQGTLVTVSS
VL: DIQMTQSPSTLSASVGDRVTITCRASQSISSWLAWYQQKPGKAPKFLIYKASRLDRGMPSRFSGSGSGTEFSLTISSLQPDDFATYYCLEYSSYIRTFGQGTKVEIK
- Stimulation Index, FXa generation assay, 800 nM OA antibody: 1690 fold

B9: one-armed (OA) mAb01-9016 (antibody, V domains shown)
VH: EVQLVESGGGLVQPGRSLKLSCAASGFTFDDYAMHWVRQVPGKGLEWVSGISWRGDIGGYVDSVKGRFTISRDNAKNSLYLQLNSLRAEDTALYYCVKSYGSGSFYNAFDSWGQGTLVTVSS
VL: DIQMTQSPSTLSASAGDRVTITCRASQSISSWLAWYQQKPGKAPKFLIYKASRLERGVPSRFSGSGSGTEFSLTISSLQPDDFATYYCLEYSSYIRTFGQGTKVEIK
- Stimulation Index, FXa generation assay, 1600 nM OA antibody: 5900 fold

B10: one-armed (OA) mAb11-0160 (antibody, V domains shown)
VH: EVQLVESGGGLVQPGRSLKLSCAASGFRFDDYAMHWVRQVPGKGLEWVSGISWKGDIGGYADSVKGRFTISRDNAKNSLYLQLNSLRAEDTALYYCVKSYGSGSFYNAFDSWGQGTLVTVSS
VL: DIQMTQSPSTLSASVGDEVTITCRASKSISSWLAWYQQKPGKAPRFLIYKASRLERGTPQRFSGSGSGTEFTLTIYSLQPDDFATYYCLEYSSYIRTFGQGTKVEIK
- Stimulation Index, FXa generation assay, 800 nM OA antibody: 4550 fold

B11: one-armed (OA) mAb11-0933 (antibody, V domains shown)
VH: EVQLVESGGGLVQPGRSLRLSCAASGFTFHDYAMHWVRQVPGKGLEWVSGISWKGDIGGYVDSVKGRFTISRDNEKNSLYLQMNSLRAEDTALYYCVKSYGSGSFYNAFDSWGQGTLVTVSS
VL: DIQMTQSPSTLSASVGDRVTITCRASQSISSWLAWYQQKPGKAPKFLIYKASRLDRGNPSRFSGSGSGTEFSLTISSLQPDDFATYYCLEYSSYIRTFGQGTKVEIK
- Stimulation Index, FXa generation assay, 800 nM OA antibody: 1610 fold

B12: one-armed (OA) mAb11-0937 (antibody, V domains shown)
VH: EVQLVESGGGLVQPGRSLRLSCAASGFTFHDYAMHWVRQVPGKGLEWVSGISWKGDIGGYVDSVKGRFTISRDNEKNSLYLQMNSLRAEDTALYYCVKSYGSGSFYNAFDSWGQGTLVTVSS
VL: DIQMTQSPSTLSASVGDRVTITCRASQSISSWLAWYQQKPGKAPKFLIYKASRLDRGSPSRFSGSGSGTEFSLTISSLQPDDFATYYCLEYSSYIRTFGQGTKVEIK
- Stimulation Index, FXa generation assay, 800 nM OA antibody: 2680 fold

B13: one-armed (OA) mAb11-0107 (antibody, V domains shown)
VH: EVQLVESGGGLVQPGRSLKLSCAASGFTFHDYAMHWVRQVPGKGLEWVSGISWRGDIGGYVKSVKGRFTISRDNAKNSLYLQLNSLRAEDTALYYCVKSYGSGSFYNAFDSWGQGTLVTVSS
VL: DIQMTQSPSTLSASVGDEVTITCRASQSISSWLAWYQQKPGKAPKFLIYKAQRLDRGTPQRFSGSGSGTEFTLTISSLQPDDFATYYCLEYSSYIRTFGQGTKVEIK
- Stimulation Index, FXa generation assay, 800 nM OA antibody: 3260 fold

B14: one-armed (OA) mAb11-0723 (antibody, V domains shown)
VH: EVQLVESGGGLVQPGRSLKLSCAASGFTFDDYAMHWVRQVPGKGLEWVSGISWKGDIGGYVDSVKGRFTISRDNAKNSLYLQLNSLRAEDTALYYCAKSYGSGSFYNAFDSWGQGTLVTVSS
VL: DIQMTQSPSTLSASAGDRVTITCRASQSISSWLAWYQQKPGKAPKFLIYKASRLDRGTPSRFSGSGSGTEFSLTISSLQPDDFATYYCLEYSSYIRTFGQGTKVEIK
- Stimulation Index, FXa generation assay, 800 nM OA antibody: 3770 fold

B15: one-armed (OA) mAb11-0049 (antibody, V domains shown)
VH: EVQLVESGGGLVQPGRSLRLSCAASGFTFHDYAMHWVRQAPGKGLEWVSGISWRGDIKGYVDSVKGRFTISRDNAKNSLYLQLNSLRAEDTALYYCAKSYGSGSFYNAFDSWGQGTLVTVSS
VL: DIQMTQSPSTLSASAGDRVTISCRASQSISSWLAWYQQKPGKAPKLLIYKASRLDRGTPSRFSGSGSGTEFTLTISSLQPDDFATYYCLEYNSYIRTFGQGTKVEIK
- Stimulation Index, FXa generation assay, 800 nM OA antibody: 1510 fold

B16: one-armed (OA) mAb11-0923 (antibody, V domains shown)
VH: EVQLVESGGGLVQPGRSLRLSCAASGFTFHDYAMHWVRQVPGKGLEWVSGISWKGDIGGYVDSVKGRFTISRDNEKNSLYLQMNSLRAEDTALYYCVKSYGSGSFYNAFDSWGQGTLVTVSS
VL: DIQMTQSPSTLSASVGDRVTITCRASQSISSWLAWYQQKPGKAPKFLIYKASRLDRGCPSRFSGSGSGTEFSLTISSLQPDDFATYYCLEYSSYIRTFGQGTKVEIK
- Stimulation Index, FXa generation assay, 800 nM OA antibody: 2820 fold

B17: one-armed (OA) mAb11-0939 (antibody, V domains shown)
VH: EVQLVESGGGLVQPGRSLRLSCAASGFTFHDYAMHWVRQVPGKGLEWVSGISWKGDIGGYVDSVKGRFTISRDNEKNSLYLQMNSLRAEDTALYYCVKSYGSGSFYNAFDSWGQGTLVTVSS
VL: DIQMTQSPSTLSASVGDRVTITCRASQSISSWLAWYQQKPGKAPKFLIYKASRLDRGWPSRFSGSGSGTEFSLTISSLQPDDFATYYCLEYSSYIRTFGQGTKVEIK
- Stimulation Index, FXa generation assay, 800 nM OA antibody: 2010 fold

B18: one-armed (OA) mAb11-0962 (antibody, V domains shown)
VH: EVQLVESGGGLVQPGRSLRLSCAASKFTFHDYAMHWVRQAPGKGLEWVSGISWKGDIGGYADSVKGRFTISRDNAKNSLYLQMNSLRAEDTALYYCAKSYGSGSFYNAFDSWGQGTLVTVSS
VL: DIQMTQSPSTLSASVGDRVTITCRASQSISSWLAWYQQKPGKAPKFLIYKASKLDRGTPSRFSGSGSGTEFTLTISSLQPDDFATYYCLEYSSYIRTFGQGTKVEIK
- Stimulation Index, FXa generation assay, 800 nM OA antibody: 3370 fold

B19: one-armed (OA) mAb11-0149 (antibody, V domains shown)
VH: EVQLVESGGGLVQPGRSLKLSCAASGFTFDDYAMHWVRQAPGKGLEWVSGISWKGDIGGYVDSVKGRFTISRDNAKNSLYLQMNSLRAEDTALYYCVKSYGSGSFYNAFDSWGQGTLVTVSS
VL: DIQMTQSPSTLSASAGDEVTITCRASQSIKSWLAWYQQKPGKAPKFLIYKASRLDRGTPQRFSGSGSGTEFSLTISRLQPDDFATYYCLEYSSYIRTFGQGTKVEIK
- Stimulation Index, FXa generation assay, 800 nM OA antibody: 3320 fold

B20: one-armed (OA) mAb11-0173 (antibody, V domains shown)
VH: EVQLVESGGGLVQPGRSLRLSCAASGFTFHDYAMHWVRQAPGKGLEWVSGISWKGDIGGYVDSVKGRFTISRDNAKNSLYLQMNSLRAEDTALYYCAKSYGSGSFYNAFDSWGQGTLVTVSS
VL: DIQMTQSPSTLSASVGDRVTITCRASQSISSWLAWYQQKPGKAPKFLIYKASKLDRGTPSRFSGSGSGTEFTLTISSLQPDDFATYYCLEYSSYIRTFGQGTKVEIK
- Stimulation Index, FXa generation assay, 1600 nM OA antibody: 8480 fold

B21: one-armed (OA) mAb11-0935 (antibody, V domains shown)
VH: EVQLVESGGGLVQPGRSLRLSCAASGFTFHDYAMHWVRQVPGKGLEWVSGISWKGDIGGYVDSVKGRFTISRDNEKNSLYLQMNSLRAEDTALYYCVKSYGSGSFYNAFDSWGQGTLVTVSS
VL: DIQMTQSPSTLSASVGDRVTITCRASQSISSWLAWYQQKPGKAPKFLIYKASRLDRGQPSRFSGSGSGTEFSLTISSLQPDDFATYYCLEYSSYIRTFGQGTKVEIK
- Stimulation Index, FXa generation assay, 800 nM OA antibody: 1570 fold
